Experimental findings from patent US20160319016A1 (GOVERNMENT OF THE UNITED STATES OF AMERICA AS REPRESENTED …, published 2016) are described below.

The assay deals with T1, CMG2 (UniProt P58335 34-489, limits assumed).
T1 construct: whole, on cells; also called ANTXR2; CHO/CMG2
Kind of assay: flow cytometry on CHO/CMG2 cells.

T1 sequence (P58335 34-489 limits assumed): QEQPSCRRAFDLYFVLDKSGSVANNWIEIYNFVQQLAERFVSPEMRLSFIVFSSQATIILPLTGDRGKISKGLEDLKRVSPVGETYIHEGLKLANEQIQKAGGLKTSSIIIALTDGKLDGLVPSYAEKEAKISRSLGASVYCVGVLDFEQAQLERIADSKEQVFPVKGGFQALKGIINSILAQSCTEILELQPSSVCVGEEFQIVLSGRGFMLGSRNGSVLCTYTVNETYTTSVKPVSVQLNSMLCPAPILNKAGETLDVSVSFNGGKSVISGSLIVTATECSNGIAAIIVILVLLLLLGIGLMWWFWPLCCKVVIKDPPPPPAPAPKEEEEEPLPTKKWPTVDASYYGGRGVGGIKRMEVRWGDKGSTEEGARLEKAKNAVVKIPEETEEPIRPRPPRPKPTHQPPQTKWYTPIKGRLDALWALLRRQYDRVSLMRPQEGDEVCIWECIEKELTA

B1: AF334 anti-TEM8 monoclonal antibody (antibody, V domains shown)
VH: QVKLEESGAELVRPGVSVKISCKGSGYTFTDYAMHWVKQSHAKSLEWIGVISTYFGDATYNQKFKGKATMTVDKSSSTAYMELARLTSEDSAIYYCAREDYVPFAYWGQGTLVTVSA
VL: DIVMTQTPPSVPVTPGESVSISCRSSKSLLHSNGNTYLYWFLQRPGQSPQLLIYRMSNLASGVPDRFSGSGSGTAFTLRISRVEAEDVGVYYCMQHLEYPFTFGSGTKLEIKR
Regarding B1, the binding result is “no binding”.
